{"source": "patent CN116003603A", "key": {"[1]": {"target": "CLDN18.2 (antigen of the ka/kd/KD measurement, species and form not stated)", "experiment": "affinity measurement, method not described (Table 2-2)"}, "[2]": {"target": "CLDN18.2 (antigen of the ka/kd/KD measurement, species and form not stated)", "experiment": "affinity measurement, method not described"}}, "data": [{"substance": "IMAB362 (antibody)", "values": [{"measurement": "Kd", "setting": "[1]", "result": 4.17, "unit": "nM"}, {"measurement": "Kd", "setting": "[2]", "result": 4.17, "unit": "nM"}]}]}
